The results in this text go back to the DeepSol protein solubility set.

This series can be described thus: soluble on expression in E. coli; label from the status in PepcDB or PDB records.
“MGSDKIHHHHHHMATEAQVLEALQATMSAAYTRGLSAAKPQWNMIATEVPSAGAANFYGWLKDLPGIVEWTGARQLANLGKHGYSIENKTFESSISISRDNVDDDQIGQYSVIAQNYGDQVAYFPDTLAYPLLKAGFTTLCYDGQNFFDTDHPLATTPATTFSNVIGDPATDTGEPWFLIDDTKVLKPIVFQNRRPFVFKNMNPNEEYTWFNNKYAAGVDGRCNVGFSFPQLAIGSKAALTEANYAAAKKLLLKMKKVDGTPIGTRATKLVVGPDNEAAAKKLISRMLIEGGDTNIYYNDVEIVVSPLVTA”: the “soluble on expression in E. coli” value is “not soluble”. Take “MNLYSLLLSLITGCFLLAQGGTSFSSPVETEKSAVTAQSILEKADEIRFPQDSFQVNVAIRTAAPDHAEDLYRYQVLSKGNENSIVMITEPASERGQAILMKGRDLWVFMPSVSQPIRLSLSQRLTGQVANGDIARANFTGDYHPQLLRNESIDDEDYYVLELTGIDRSVTYQKVLLWVNQSNFRPYKAEFYSVSGRLLKTSRYENFDNILGEMRPTRIIMEDALKSGEVSVLDYSDMKLRDLPDKIFTKDYLKRLE”: the “soluble on expression in E. coli” value is “not soluble”. As to “MSSNLQLVETFDSRQFVVARWNRNDTTAMVPSAIAVVVFVESVEYKLGCKEKIGYSPTPEDQDQFMILQMESIDEANRICHDSIAKGFAINNTKIVFTPLLGLNGFRLQDAIDFMKTSQPHFNNDELLEVLTMAICQELPERLKILEDGFSFIEQGVSELIQNSACEMFGSFASPVRRNGYSDIDINVESVSAPGQRVSTNVRPLNEVVANPKCLITHPLTKSELETYPQEEIIKILYRCFNENSAFKTKFEMRFLPARTPIIVFKNIEVEGMNVSYDLSVHNQISVEKASLLHEFIVKDKSKGSRMKNAMMFIVHWAKSNKLLSGDYPEEKLEVKTKLNSYIINQLVIHFVQAATNKVHVNPQAKRDSRVNEYNFDTLFGDYCKFFRELFKYYANFDFTNKAIYGKKAMQKKTLSSAHGGVEESPLMLMDPMDITHNISAKVTEDAVKLLNGLIRNALFILKQNHFHINYLLETNTMATMLMKSREPKISISTRVTDGAEHQYLSVQLPAVVITSSDLFLLLTRVLRFNVCPNEQGPSVVDLCTPTGAIFLVTSRAWVGRRNTKRALKNSRHDLTPLQIDVMCSDKYDYEEDIAELRISMSTVPGTRIRLACIDIMRGQVSEVRDAIHFLIDQFINNNYDDLEKNGVQTISRIPIAAPTWP”, the “soluble on expression in E. coli” value is listed as “not soluble”.

As to “MSLENGYTPKLMYERLSKRLGSLFTFFSEPAFENLLPPPPPEQYRRPLTLVVTLDDFLIHSNWDTQHGWRTGKRPGLDYFLGYLSQYYEIVVFSSNLQMYSDKTVNKLDPYHAYISYALFREACRYKDGKLIKDLSLLNRDLGKTVMIDVDEDSAALQPENSIIVKKWEGQPDEYLISLIPFLEYLATQPVKDVRPILNSYKDKSNEGHHHHHH”, the “soluble on expression in E. coli” value was “soluble”. On to “MTQDRPLLAVQEALKKCFPVVEEQQGLWQSALRDCQPLLSSLSNLAEQLQAAQNLRFEDVPALRAFPDLKERLRQPSSSRCETWSAAMWSECFRSMSNTQTQLALMLSCSLQQ”, for which the “soluble on expression in E. coli” value is recorded as “soluble”. In the case of “MYSEERRRQIASLTAVEGRVNVTELAARFDVTAETIRRDLAVLDREGVVHRVHGGAVANQTFQTAEFSLDTRSRSASGAKNSIAHAALSYLPEAQGGLFLDAGTTTAALAELLAAQPFAKHWSIVTNSLSIALTLANSGLDEIQLLGGSVRAITQAVVGDTALRTLALMRADVAFIGTNALTIDHGLSTADSQEAAIKSAMITNAHKVVVLCDSTKMGTDYLVSFGSISDIDVIITDANAPESFVKALRDRDVEVIIA” it was “not soluble”; in that of “MRPSAIVLAGGKEAWAERFGVGSKALVPYRGRPMVEWVLEALYAAGLSPVYVGENPGLVPAPALTLPDRGGLLENLEQALEHVEGRVLVATGDIPHLTEEAVRFVLDKAPEAALVYPIVPKEAVEARFPRTKRTYARLREGTFTGGNLLLLDKSLFRKALPLARRVVALRKRPLALARLVGWDVLLKLLLGRLSLAEVEARAQRILGVEARALVTPYPEVGVDVDREEDLVS”, “soluble”; in that of “MGSDKIHHHHHHMKLSPTAQPFLHLHNLFILHQKVLVVKPMKELFPGLKRFRAYLNTAGLGLMPLTVYQKVNEFLLDVINYEDGINAVEILDELYFNPMLKKAAKLMKTNPENITVSLQTTDGLKRILTSLTPKKGMKIVSFDLEFPTISAILKSYAKRHGLEVKVIGNKGGLYYMEDVERVIDDNTFAVVFSDVQWITGQRMPTKEIAGVAHEHGAWVIVDAVQSLGALEVYPEKMEVDALVAGGEKWLLNPNTGSGVMWISEELIEVSEPILGLLNTQPEVPWSEWWGDERKDVWDILPVRKDARKLDPGTPPYVSIVALDASLELINSVGIEKIEKHDMKLAKRVREYAYELGVTALGSSQITLLRLGVDYVKQREIVKNLEEKGIVVSLRGAKGIFGIRVSPHLYNTEDDIVTLFDELSKFF”, “not soluble”. Under “SGDVLWDIPTPKIIEECEHLEDGIYGIFQSTFLGASQRGVGVAQGGVFHTMWHVTRGAFLVRNGKKLIPSWASVKEDLVAYGGSWKLEGRWDGEEEVQLIAAVPGKNVVNVQTKPSLFKVRNGGEIGAVALDYPSGTSGSPIVNRNGEVIGLYGNGILVGDNSFVSAISQTEVKEEGKEELQEIPTMLKKGMTTVLDFHPGAGKTRRFLPQILAECARRRLRTLVLAPTRVVLSEMKEAFHGLDVKFHTQAFSAHGSGREVIDAMCHATLTYRMLEPTRVVNWEVIIMDEAHFLDPASIAARGWAAHRARANESATILMTATPPGTSDEFPHSNGEIEDVQTDIPSEPWNTGHDWILADKRPTAWFLPSIRAANVMAASLRKAGKSVVVLNRKTFEREYPTIKQKKPDFILATDIAEMGANLCVERVLDCRTAFKPVLVDEGRKVAIKGPLRISASSAAQRRGRIGRNPNRDGDSYYYSEPTSENNAHHVCWLEASMLLDNMEVRGGMVAPLYGVEGTKTPVSPGEMRLRDDQRKVFRELVRNCDLPVWLSWQVAKAGLKTNDRKWCFEGPEEHEILNDSGETVKCRAPGGAKKPLRPRWCDERVSSDQSALSEFIKFAEGRR” stands “soluble”; under “VAKQRPDGIRAYEDPAGGWGALKALAVALKDQQLVVEGIPTLLKQNQPEGFDCPGCAWPDPKHTSAFEFCENGAKAVTWESTPKRVGPDFFAQHTVTSLWECSDYWLEDQGRLTHPMRYDAQTDKYEPVDWQVAFDDIAAKLDALDDPNQLELYTSGRASNEAAFLFQLFGRQFGTNNFPDCSNMCHEPTSVGLPRSIGIGKGTVTLDDFDKAELIISMGHNPGTNHPRMMTPLRNASRRGVKIIVLNPLKERALERFEAPQAPLEMATTSSTPIASCYFQVKVGGDAAALKGICKALVAADKVARAADLAPLLDHTFIVGHTAGFDALVDDLEGCSWSAIERASGLPRADMERIAADYAASNATIVCYGMGITQHVTGTANVQQIANLLLLKGNIGKPGAGICPLRGHSNVQGDRTVGITERPSEAFLDRLRDVFGFEPPRAFGHSVVDSIAAMRDGRAKAVICLGGNLAMAASDPQACFKGFRRLDLAVHLATKLNRTHLLTSKTTYLFPVLGRTDSDIQASGRQALTVEDSMSMVHASRGFLTPPSDQVRSEVAILAGIAKATLRSKSRVDWDALAGNYDLIRDAIEEVFPDFEAYNDRIRKPGGFQLPNSAAMRIWNTPTGKANFAIFAGLEEDETSTDRDVLRMTSLRAHDQYNTTIYGLNDRYRGVFGRRDVLFLNPKDLARLGFAEGDVVDVATALDYARPDRVVQALTLVSYNLPDGCCASYYPEIQPLVALEFRDPECLTPSYKSIPVKVTAARAPLAADRAVGRDGIVGREPGVETATGPSPVSLID”, “soluble”. In the case of “MSLTTMKEIAEQTGVSISTVSLVLNGRDEGRVNPALAKLVRNKATELGYKINPLARSLRTNKTRILGFISEEVATTPYAGGIILGAQDAASAYGYMLFTVSTDGKASEENEIATLKRYGVDGFFYSKMSNRIAHVPESLSDYPVVMVDATDYENKVPSVEPDEFMIGYDATIRLLQADCKRIAYVGCAENMIAQDGRLAGYCTALQEAGRAFNPSLVCNVMNDGPALRAVNKLFDDEHPDGFFCFNDARAWYVYECAARRGLTVGKDISVVGVDNHRVFAETLEPQLTTVELPHYEMGYWSACKLISMIEGKDVDTSEGHHHHHH” it was “not soluble”; in that of “MGHHHHHHSHMSGTEEAILGGRDSHPAAGGGSVLCFGQCQYTAEEYQAIQKALRQRLGPEYISSRMAGGGQKVCYIEGHRVINLANEMFGYNGWAHSITQQNVGEYALQQWGLLHCPAPAESLLWVRR”, “soluble”.
